Reference: patent US20260248972A1, “DUAL RECEPTOR TARGETING RADIOLIGANDS AND USES THEREOF RELATED APPLICATIONS” (priority 2022, published 2026)

Assay: in vivo
Conditions: BALB/c nude, mouse, in vivo, iv, total radioactivity
Method: To a 0.5 M NaOAc buffer (20-50 μL, pH=4.5) was added 4 μL of exemplary or comparator compound in DMSO stock solution (2000 μM) and 2 mCi ^177Lu (ITM Isotope Technologies Munich), the resulting mixture was heated to 95° C. for 15 min. The resulting product was analyzed by radio-TLC and radio-HPLC (column: Shim-pack GIST 5 μm 4.6*150 mm; buffer A: 0.2% formic acid H2O; buffer B: 0.1% formic acid acetonitrile; flow rate: 1 mL/min; gradient: 0-5 min: 10% B to 95% B; then 5-8 min: 95% B). The labelled products were used immediately or diluted by a PBS buffer containing freshly added 3 mg/mL ascorbate.
All animal care and experimental procedure were performed by following the animal protocols approved by the ethics committee of China Institute of Radiation Protection. The BALB/c nude mice (Charles River, Beijing) were utilized for these studies. Mice were below 5 per cage in sterile, microisolator cages under temperature- and humidity-controlled conditions with a 12 h light/12 h dark schedule and fed irradiated rodent chow and reverse osmosis (RO) sterile water ad libitum. In preparation for tumor cell inoculations, mice were anesthetized with isoflurane (RWD Life Science Inc.) at an induction rate of 4% and maintained at a rate of 2.5% with 0.4 L oxygen delivered via precision vaporizer and a non-rebreathing apparatus. These mice received subcutaneous rear flank injections of approximately 4×10^6 AR42J cells ([…] pancreatic cancer cell line) suspended in 200 μL of phosphate-buffered saline (PBS) and Matrigel (Corning) (1/1). Xenografted tumors were allowed to grow for ~2-4 weeks post-inoculation and ranged in mass from 0.05 to 0.50 g (average tumor size, 0.20 g). […] The mice were euthanized, and the tissues and organs were excised from the animals at 4, 24 and 72 h post-injection. The tissues and organs were weighed, counted in a PerkinElmer 2480 WIZARD2 γ counter, and the percent injected dose (% ID) and % ID/g of each organ or tissue were calculated.

C[C@@H](O)[C@H](NC(=O)[C@@H]1CSSC[C@H](NC(=O)[C@@H](Cc2ccccc2)NC(=O)COCCOCCNC(=O)[C@H](CCCCNC(=O)c2cccc(NC(=O)N[C@@H]3CN(C4CCCCC4)c4ccccc4N(CC(=O)C(C)(C)C)C3=O)c2)NC(=O)CN2CCN(CC(=O)O)CCN(CC(=O)O)CCN(CC(=O)O)CC2)C(=O)N[C@@H](Cc2ccc(O)cc2)C(=O)N[C@H](Cc2c[nH]c3ccccc23)C(=O)N[C@@H](CCCCN)C(=O)N[C@@H]([C@@H](C)O)C(=O)N1)C(=O)O [Compound 177Lu-I-37, metal not drawn]
tissue uptake at 4 h (% ID/g Adrenal gland): 2.01 %ID/g
tissue uptake at 24 h (% ID/g Adrenal gland): 1.43 %ID/g
tissue uptake at 72 h (% ID/g Adrenal gland): 0.22 %ID/g
tissue uptake at 4 h (% ID/g Blood): 0.94 %ID/g
tissue uptake at 24 h (% ID/g Blood): 0.18 %ID/g
tissue uptake at 72 h (% ID/g Blood): 0.05 %ID/g
tissue uptake at 4 h (% ID/g Fat): 3.28 %ID/g
tissue uptake at 24 h (% ID/g Fat): 0.4 %ID/g
tissue uptake at 72 h (% ID/g Fat): 0.32 %ID/g
tissue uptake at 4 h (% ID/g Femur): 0.83 %ID/g
tissue uptake at 24 h (% ID/g Femur): 0.26 %ID/g
tissue uptake at 72 h (% ID/g Femur): 0.18 %ID/g
tissue uptake at 4 h (% ID/g Heart): 1.12 %ID/g
tissue uptake at 24 h (% ID/g Heart): 0.4 %ID/g
tissue uptake at 72 h (% ID/g Heart): 0.15 %ID/g
tissue uptake at 4 h (% ID/g Intestine): 2.17 %ID/g
tissue uptake at 24 h (% ID/g Intestine): 0.67 %ID/g
tissue uptake at 72 h (% ID/g Intestine): 0.5 %ID/g
tissue uptake at 4 h (% ID/g Kidney): 22.5 %ID/g
tissue uptake at 24 h (% ID/g Kidney): 7.79 %ID/g
tissue uptake at 72 h (% ID/g Kidney): 3.16 %ID/g
tissue uptake at 4 h (% ID/g Liver): 11 %ID/g
tissue uptake at 24 h (% ID/g Liver): 2.4 %ID/g
tissue uptake at 72 h (% ID/g Liver): 2.03 %ID/g
tissue uptake at 4 h (% ID/g Lung): 4.42 %ID/g
tissue uptake at 24 h (% ID/g Lung): 1.38 %ID/g
tissue uptake at 72 h (% ID/g Lung): 1.41 %ID/g
tissue uptake at 4 h (% ID/g Muscle): 0.38 %ID/g
tissue uptake at 24 h (% ID/g Muscle): 0.1 %ID/g
tissue uptake at 72 h (% ID/g Muscle): 0.03 %ID/g
tissue uptake at 4 h (% ID/g Pancreas): 4.5 %ID/g
tissue uptake at 24 h (% ID/g Pancreas): 0.68 %ID/g
tissue uptake at 72 h (% ID/g Pancreas): 0.19 %ID/g
tissue uptake at 4 h (% ID/g Spleen): 0.8 %ID/g
tissue uptake at 24 h (% ID/g Spleen): 0.2 %ID/g
tissue uptake at 72 h (% ID/g Spleen): 0.13 %ID/g
tissue uptake at 4 h (% ID/g Stomach): 6.95 %ID/g
tissue uptake at 24 h (% ID/g Stomach): 2.58 %ID/g
tissue uptake at 72 h (% ID/g Stomach): 2.13 %ID/g
tissue uptake at 4 h (% ID/g Tumor): 48.7 %ID/g
tissue uptake at 24 h (% ID/g Tumor): 23.1 %ID/g
tissue uptake at 72 h (% ID/g Tumor): 21.4 %ID/g

C[C@@H](O)[C@H](NC(=O)[C@@H]1CSSC[C@H](NC(=O)[C@@H](Cc2ccccc2)NC(=O)COCCOCCNC(=O)COCCOCCNC(=O)[C@H](CCCCNC(=O)c2cccc(NC(=O)N[C@@H]3CN(C4CCCCC4)c4ccccc4N(CC(=O)C(C)(C)C)C3=O)c2)NC(=O)CN2CCN(CC(=O)O)CCN(CC(=O)O)CCN(CC(=O)O)CC2)C(=O)N[C@@H](Cc2ccc(O)cc2)C(=O)N[C@H](Cc2c[nH]c3ccccc23)C(=O)N[C@@H](CCCCN)C(=O)N[C@@H]([C@@H](C)O)C(=O)N1)C(=O)O [Compound 177Lu-I-39, metal not drawn]
tissue uptake at 4 h (% ID/g Adrenal gland): 1.33 %ID/g
tissue uptake at 24 h (% ID/g Adrenal gland): 1.06 %ID/g
tissue uptake at 72 h (% ID/g Adrenal gland): 0.3 %ID/g
tissue uptake at 4 h (% ID/g Blood): 0.91 %ID/g
tissue uptake at 24 h (% ID/g Blood): 0.33 %ID/g
tissue uptake at 72 h (% ID/g Blood): 0.06 %ID/g
tissue uptake at 4 h (% ID/g Fat): 3.38 %ID/g
tissue uptake at 24 h (% ID/g Fat): 1.07 %ID/g
tissue uptake at 72 h (% ID/g Fat): 0.27 %ID/g
tissue uptake at 4 h (% ID/g Femur): 0.9 %ID/g
tissue uptake at 24 h (% ID/g Femur): 0.42 %ID/g
tissue uptake at 72 h (% ID/g Femur): 0.1 %ID/g
tissue uptake at 4 h (% ID/g Heart): 0.84 %ID/g
tissue uptake at 24 h (% ID/g Heart): 0.38 %ID/g
tissue uptake at 72 h (% ID/g Heart): 0.12 %ID/g
tissue uptake at 4 h (% ID/g Intestine): 1.8 %ID/g
tissue uptake at 24 h (% ID/g Intestine): 0.76 %ID/g
tissue uptake at 72 h (% ID/g Intestine): 0.24 %ID/g
tissue uptake at 4 h (% ID/g Kidney): 25.7 %ID/g
tissue uptake at 24 h (% ID/g Kidney): 12 %ID/g
tissue uptake at 72 h (% ID/g Kidney): 3.2 %ID/g
tissue uptake at 4 h (% ID/g Liver): 6.35 %ID/g
tissue uptake at 24 h (% ID/g Liver): 2.78 %ID/g
tissue uptake at 72 h (% ID/g Liver): 1.24 %ID/g
tissue uptake at 4 h (% ID/g Lung): 3.81 %ID/g
tissue uptake at 24 h (% ID/g Lung): 1.85 %ID/g
tissue uptake at 72 h (% ID/g Lung): 0.87 %ID/g
tissue uptake at 4 h (% ID/g Muscle): 0.3 %ID/g
tissue uptake at 24 h (% ID/g Muscle): 0.13 %ID/g
tissue uptake at 72 h (% ID/g Muscle): 0.02 %ID/g
tissue uptake at 4 h (% ID/g Pancreas): 3.71 %ID/g
tissue uptake at 24 h (% ID/g Pancreas): 0.94 %ID/g
tissue uptake at 72 h (% ID/g Pancreas): 0.15 %ID/g
tissue uptake at 4 h (% ID/g Spleen): 0.76 %ID/g
tissue uptake at 24 h (% ID/g Spleen): 0.31 %ID/g
tissue uptake at 72 h (% ID/g Spleen): 0.07 %ID/g
tissue uptake at 4 h (% ID/g Stomach): 6.28 %ID/g
tissue uptake at 24 h (% ID/g Stomach): 4.63 %ID/g
tissue uptake at 72 h (% ID/g Stomach): 1.26 %ID/g
tissue uptake at 4 h (% ID/g Tumor): 41.8 %ID/g
tissue uptake at 24 h (% ID/g Tumor): 27.5 %ID/g
tissue uptake at 72 h (% ID/g Tumor): 9.48 %ID/g
